Results published in PMC7658014.

Molecular target: T1, His6-OpaR (Vibrio parahaemolyticus (VP93?)) (UniProt Q79YV4)
T1 sequence: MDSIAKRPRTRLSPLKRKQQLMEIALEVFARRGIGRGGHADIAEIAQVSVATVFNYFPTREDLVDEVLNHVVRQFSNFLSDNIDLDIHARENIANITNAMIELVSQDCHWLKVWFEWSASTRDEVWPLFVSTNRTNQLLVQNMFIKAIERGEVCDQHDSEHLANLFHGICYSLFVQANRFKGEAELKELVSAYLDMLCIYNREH
Assay: EMSA
Settings: EMSA: 0.4 ng probe, 20 uL of 100 mM HEPES pH 7.6, 5 mM EDTA, 50 mM (NH4)2SO4, 5 mM DTT, 1% Tween 20, 150 mM KCl, 25 C, 30 min; footprinting: 75 ng probe, DIG …

GCGCCAAAATGGCATAGAAAGGTGAAGAATAGCATTACATTGAAAAATAACAAAAGGGCAGTGCGTGATCGCACTGCCCTTTTAATAATCAGATTGATAGTAAGATTAACTCTTCGAGCTTTATCACCAAGAGTGATGAATCAATCG (double strand) [degS P1]
binding: binds

GGTTTATCCTATAAATTGCGGATATTTTAAGAAATTAATATTCATTAAATTGATAACTGGCGACGGATCTTTATGATGACGGTTGATATGCCGATAGAGCACTCATTAGCCAGT (double strand) [lytM P1]
binding: binds
